Here are results for three molecules from paper PMC7041945, “Misfolded proteins bind and activate death receptor 5 to trigger apoptosis during unresolved endoplasmic reticulum stress” (eLife, 2020).

No end group written: not given here.

Settings in all cases: both partners purified
Experiment [1] deals with T1, Fc-tagged DR5 ectodomain (long isoform) (human, UniProt O14763 56-210).
T1 construct: DR5 extracellular domain, long isoform; 55 kDa on SDS-PAGE by the legend; also called Fc-tagged DR5 ECD; Fc-tagged DR5L ECD; source: recombinant, generated and purified at Genentech Inc
Put plainly: peptide or protein array; 18-residue peptides tiled on the array; 500 nM Fc-tagged DR5 ECD in 50 mM HEPES pH 7.2, 250 mM NaCl, 10% glycerol, 1 hr at room temperature; detected with anti-Fc.

Experiment [2] deals with T1, Fc-tagged DR5 ectodomain (long isoform). Put plainly: pull-down; Fc-tagged ECD held on Dynabeads Protein G, incubated with peptide in 20 mM HEPES pH 7.2, 100 mM KOAc, 0.2% Tween-20, 1 hr at RT; Coomassie-stained SDS-PAGE.
The target in experiment [3] is T2, FLAG-tagged DR5 long isoform ECD (human).
T2 construct: human DR5 ECD, long isoform, residues 72-213; Dimer without peptide by cross-linking; multimers with peptide; also called FLAG-tagged DR5L ECD; recombinant DR5L ECD; source: SF21 (baculovirus), secreted, purified (HisTrapFF, SuperDex200); not shown: FLAG, C-terminal, kept
As to the kind of experiment: SEC; 25 μM recombinant DR5L ECD alone or pre-incubated overnight at 4°C with 100 or 400 μM fluorescein-conjugated peptide or 25 μM TRAIL; SuperDex200 10/300 GL, 30 mM HEPES pH 7.2, 150 mM NaCl; fractions on SDS-PAGE, fluorescence scan and Coomassie.

T2 sequence (chain, as listed by the source): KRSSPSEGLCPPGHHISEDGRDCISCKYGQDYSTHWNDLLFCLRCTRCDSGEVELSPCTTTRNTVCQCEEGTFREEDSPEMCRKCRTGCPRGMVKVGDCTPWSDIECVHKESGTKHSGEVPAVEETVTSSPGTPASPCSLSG

B1: MPZ-ecto peptide (peptide)
peptide: FTWRYQPEGGRDAISIFHYA
notes: stretch of the ectodomain of human myelin protein zero; The array spots are 18-residue peptides; also called spots C18-C19 of the peptide array; source: synthetic peptide, GenScript (>95% purity); as spots C18-C19 on the peptide array of the MIT Biopolymers Laboratory
With B1, the binding result in experiment [1] is “binds”.

B2: MPZ-ecto^VD peptide (peptide)
peptide: VSDDISFTWRYQPEGGRD
notes: stretch of the ectodomain of human myelin protein zero; source: synthetic peptide, GenScript (>95% purity)
B2: the binding result in experiment [2] is listed as “binds”.

B3: fluorescein-conjugated MPZ-ecto peptide (peptide)
peptide: FTWRYQPEGGRDAISIFHYA
modifications: also: fluorescein-conjugated, site not given here
notes: stretch of the ectodomain of human myelin protein zero; also called fluorescein-labeled MPZ-ecto peptide; source: synthetic peptide
Take B3: in experiment [3], the binding result is “binds”.
